Laboratory results taken from the supplement of paper PMC10567573.

B1: CLPTM1 (parent)
chain: LGCYAVYSLLYLEHKGWYSWVLSM

Variants of: B1
Experiment: protein stability index of a GFP-peptide fusion (GPS, HEK-293T) (PSI 1-6); higher = more stable
Details: c terminus: a fixed tail appended
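Further: lentivirally expressed fusions sorted by FACS into six bins by GFP to DsRed ratio, PSI derived from sequencing read proportions per bin multiplied by bin number.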

In order of rising protein stability index:
1. LGCYAVYSLLYLEHKGWCSWVLSM  1.27
2. LGCYAVYSLLYLEHKGWYSWDLSM  1.56
3. LGCYAVYSLLYLEHKGWYSWVLTM  1.72
4. LGCYAVYSLLYLEHKGWYSWVGSM  1.72
5. LGCYAVYSLLYLEHKGWYSWVLVM  1.82
6. LGCYAVYSLLYLEHKGWYSWILSM  1.96
7. LGCYAVYSLLYLEHKGWYSWVTSM  1.98
8. LGCYAVYSLLYLEHKGWYSWRLSM  1.99
9. LGCYAVYSLLYLEHKGWYSWVKSM  2.01
10. LGCYAVYSLLYLEHKGWYSWVLSD  2.05
11. LGCYAVYSLLYLEHKGWKSWVLSM  2.08
12. LGCYAVYSLLYLEHKGWYSWVLFM  2.11
13. LGCYAVYSLLYLEHKGWYSWVMSM  2.11
14. LGCYAVYSLLYLEHKGWYSWFLSM  2.12
15. LGCYAVYSLLYLEHKGWYSWKLSM  2.12
16. LGCYAVYSLLYLEHKGWYSWVLGM  2.17
17. LGCYAVYSLLYLEHKGWYSWVQSM  2.18
18. LGCYAVYSLLYLEHKGWGSWVLSM  2.21
19. LGCYAVYSLLYLEHKGWYSWVLRM  2.26
20. LGCYAVYSLLYLEHKGWYSWVLNM  2.27
21. LGCYAVYSLLYLEHKGWYEWVLSM  2.27
22. LGCYAVYSLLYLEHKGWYSWVLSR  2.3
23. LGCYAVYSLLYLEHKGWYSWTLSM  2.31
24. LGCYAVYSLLYLEHKGYYSWVLSM  2.38
25. LGCYAVYSLLYLEHKGWYSWVLSN  2.39
26. LGCYAVYSLLYLEHKGWYSWVLSA  2.39
27. LGCYAVYSLLYLEHKGWYSWVLLM  2.41
28. LGCYAVYSLLYLEHKGWYSWVLSY  2.41
29. LGCYAVYSLLYLEHKGWHSWVLSM  2.44
30. LGCYAVYSLLYLEHKGWYSWHLSM  2.45
31. LGCYAVYSLLYLEHKGWYSWALSM  2.45
32. LGCYAVYSLLYLEHKGWYSWMLSM  2.45
33. LGCYAVYSLLYLEHKGWYSWVRSM  2.45
34. LGCYAVYSLLYLEHKGWYSWVLSS  2.46
35. LGCYAVYSLLYLEHKGWYFWVLSM  2.47
36. LGCYAVYSLLYLEHKGWLSWVLSM  2.48
37. LGCYAVYSLLYLEHKGWYSWVLYM  2.49
38. LGCYAVYSLLYLEHKGWQSWVLSM  2.56
39. LGCYAVYSLLYLEHKGWYSWVWSM  2.58
40. LGCYAVYSLLYLEHKGWYSWVLSL  2.6
41. LGCYAVYSLLYLEHKGWMSWVLSM  2.61
42. LGCYAVYSLLYLEHKGWFSWVLSM  2.61
43. LGCYAVYSLLYLEHKGWYSWVLST  2.61
44. LGCYAVYSLLYLEHKGWYSWGLSM  2.62
45. LGCYAVYSLLYLEHKGWYYWVLSM  2.62
46. LGCYAVYSLLYLEHKGWYSWVLHM  2.63
47. LGCYAVYSLLYLEHKGWYSWYLSM  2.63
48. LGCYAVYSLLYLEHKGWYSWVLSI  2.67
49. LGCYAVYSLLYLEHKGWYGWVLSM  2.71
50. LGCYAVYSLLYLEHKGWYSWLLSM  2.77
51. LGCYAVYSLLYLEHKGWYPWVLSM  2.93
52. LGCYAVYSLLYLEHKGWVSWVLSM  2.95
53. LGCYAVYSLLYLEHKGWYSWNLSM  3.02
54. LGCYAVYSLLYLEHKGWYSWVLWM  3.03
55. LGCYAVYSLLYLEHKGWWSWVLSM  3.03
56. LGCYAVYSLLYLEHKGWYCWVLSM  3.08
57. LGCYAVYSLLYLEHKGWYSWVLQM  3.11
58. LGCYAVYSLLYLEHKGWYSWVLMM  3.15
59. LGCYAVYSLLYLEHKGWYSWVLIM  3.17
60. LGCYAVYSLLYLEHKGWYSWVESM  3.17
61. LGCYAVYSLLYLEHKGWISWVLSM  3.27
62. LGCYAVYSLLYLEHKGTYSWVLSM  3.28
63. LGCYAVYSLLYLEHKGWYSWVASM  3.33
64. LGCYAVYSLLYLEHKGWYSWVISM  3.34
65. LGCYAVYSLLYLEHKGWYSWWLSM  3.42
66. LGCYAVYSLLYLEHKGWYSWVPSM  3.42
67. LGCYAVYSLLYLEHKGWNSWVLSM  3.45
68. LGCYAVYSLLYLEHKGWYSWELSM  3.46
69. LGCYAVYSLLYLEHKGWYSWVFSM  3.46
70. LGCYAVYSLLYLEHKGWYSWVSSM  3.49
71. LGCYAVYSLLYLEHKGWPSWVLSM  3.5
72. LGCYAVYSLLYLEHKGWYSWVYSM  3.5
73. LGCYAVYSLLYLEHKGWDSWVLSM  3.53
74. LGCYAVYSLLYLEHKGWYSWVLSV  3.57
75. LGCYAVYSLLYLEHKGWYSWSLSM  3.6
76. LGCYAVYSLLYLEHKGWYSWVLSK  3.6
77. LGCYAVYSLLYLEHKGWYSWVLSQ  3.62
78. LGCYAVYSLLYLEHKGWYSWPLSM  3.65
79. LGCYAVYSLLYLEHKGWYIWVLSM  3.66
80. LGCYAVYSLLYLEHKGWRSWVLSM  3.76
81. LGCYAVYSLLYLEHKGWYSWVLSH  3.76
82. LGCYAVYSLLYLEHKGWYSWVLSW  3.77
83. LGCYAVYSLLYLEHKGWYSWVLCM  3.78
84. LGCYAVYSLLYLEHKGWYSWVLSP  3.83
85. LGCYAVYSLLYLEHKGWYNWVLSM  3.88
86. LGCYAVYSLLYLEHKGWYTWVLSM  3.99
87. LGCYAVYSLLYLEHKGWYSWVLSG  4.14
88. LGCYAVYSLLYLEHKGWYSWCLSM  4.16
89. LGCYAVYSLLYLEHKGWYSWVLPM  4.18
90. LGCYAVYSLLYLEHKGWYAWVLSM  4.22
91. LGCYAVYSLLYLEHKGWYSWVCSM  4.24
92. LGCYAVYSLLYLEHKGWYSWVLSF  4.41
93. LGCYAVYSLLYLEHKGWYSWVLSC  4.42
94. LGCYAVYSLLYLEHKGWYSWVLSE  5.08
